Data reported in article PMC11554226 (2024).

Target: receptor-binding domain (RBD) of SARS-CoV-2 prototype strain (SARS-CoV-2 prototype strain, UniProt P0DTC2)
Experiment: SPR

Binder | Kd
Tnb04-1 R50Q (nanobody-Fc) (Fc fusion) EVQLVESGGGLVQPGGSLRLSCAASGSISTLNVMGWYRQAPGKQRELVAQITLDGRPEYADSVKGRFTITKDGAQSTLYLQMNNLKPEDTAVYFCKLENGGFFYYWGQGTQVTVSS | 0.471 nM
Tnb04-1 R56S (nanobody-Fc) (Fc fusion) EVQLVESGGGLVQPGGSLRLSCAASGSISTLNVMGWYRQAPGKQRELVARITLDGSPEYADSVKGRFTITKDGAQSTLYLQMNNLKPEDTAVYFCKLENGGFFYYWGQGTQVTVSS | 0.535 nM
